Test results taken from US20220259289A1 (Janssen / Centocor, published 2022).
Positions count from the first letter of the chain named.

B1: ISOP120GR5P1F5 (designed binder, not shown: small tags and cut ends)
chain: LPAPKNLVVSRVTEDSARLSWTAPDAAFDSFEIDYWEVESEGEAIVLFVPGSERSYDLTGLKPGTEYHVHIVGVKGGTPSYPLWADFTT
notes: FN3 domain (Centyrin); tested as E. coli lysate
B2: ISOP193GR9P1F6 (designed binder, not shown: small tags and cut ends)
chain: B1 chain
B3: ISOP120GR5P1E7 (designed binder, not shown: small tags and cut ends)
chain: B1 chain with V46I
notes: as for B1
B4: ISOP193GR9P1H2 (designed binder, not shown: small tags and cut ends)
chain: LPAPKNLVVSRVTEDSARLSWTAPDAAFDSFEIPYIEVETIGEAIWLHVPGSERSYDLTGLKPGTEYSVGINGVKGGHTSNPLSARFTT
B5: ISOP193FR9P1E1 (designed binder, not shown: small tags and cut ends)
chain: LPAPKNLVVSRVTEDSARLSWTAPDAAFDSFIIRYLEDISYGEAIVLTVPGSERSYDLTGLKPGTEYHVGIEGVKGGNVSWPLSAIFTT
B6: ISOP193ER9P1H3 (designed binder, not shown: small tags and cut ends)
chain: B5 chain with I32E, R34Y, D38V, I39R, S40N, Y41R, E72A, N78F, V79H, W81F
B7: ISOP193ER9P1B4 (designed binder, not shown: small tags and cut ends)
chain: LPAPKNLVVSHVTEDSARLSWTAPDAAFDSFDIYYFEHPVGGEAIVLTVPGSERSYDLTGLKPGTEYLVTIYGVKGGYLSMPLSAIFTT
B8: ISOP193HR9P1A10 (designed binder, not shown: small tags and cut ends)
chain: LPAPKNLVVSRVTEDSARLSWTAPDAAFDSFDIYYLEPWGGGEAIVLTVPGSERSYDLTGLKPGTEYWVTIYGVKVCLGSNPLSAIFTT
B9: ISOP193HR9P1F10 (designed binder, not shown: small tags and cut ends)
chain: B7 chain with H11R, F36Y, H38L, P39R, V40L, L79Y, M81G
B10: ISOP193ER9P1D7 (designed binder, not shown: small tags and cut ends)
chain: B7 chain with H11R, F36G, P39W, V40K, G41L, Y78M, L79S, M81N
B11: ISOP193HR9P1H7 (designed binder, not shown: small tags and cut ends)
chain: B8 chain with D32E, L36R, W39H, G40Y
B12: ISOP193FR9P1A11 (designed binder, not shown: small tags and cut ends)
chain: LPAPKNLVVSRVTEDSARLSWTAPDAAFDSFAIQYWEGWEWGEAIVLTVPGSERSYDLTGLKPGTEYLVTIYGVKGGHWSRPLSAIFTT
B13: ISOP193HR9P1G6 (designed binder, not shown: small tags and cut ends)
chain: B8 chain with L36Y, P38L, W39R, G40L, W68L, L78E, G79Q, N81Y, F87S
B14: ISOP193HR9P1G10 (designed binder, not shown: small tags and cut ends)
chain: B7 chain with H11R, D32E, H38L, P39R, V40L, Y78D, L79Y, M81P, F87S
B15: ISOP193FR9P1G2 (designed binder, not shown: small tags and cut ends)
chain: B12 chain with A32T, Q34Y, W36F, G38N, W39E, E40N, W41G, G64D
B16: ISOP193ER9P1F9 (designed binder, not shown: small tags and cut ends)
chain: B7 chain with H11R, D32H, F36G, P39Y, V40N, G41L, Y78F, L79W, M81T
B17: ISOP193HR9P1G4 (designed binder, not shown: small tags and cut ends)
chain: B7 chain with H11R, D32E, H38L, P39R, V40L, Y78D, L79Y, M81P
B18: ISOP193HR9P1F8 (designed binder, not shown: small tags and cut ends)
chain: B8 chain with L36Y, P38L, W39R, G40L, W68L, L78Y, G79Y, N81T
B19: ISOP193HR9P1G5 (designed binder, not shown: small tags and cut ends)
chain: B7 chain with H11R, F36Y, H38L, P39R, V40L, G77C, Y78A, L79A, M81D
B20: ISOP193HR9P1E8 (designed binder, not shown: small tags and cut ends)
chain: B7 chain with H11R, F36Y, H38L, P39R, V40L, Y78D, L79Y, M81P
B21: ISOP193HR9P1H10 (designed binder, not shown: small tags and cut ends)
chain: B8 chain with L36Y, P38L, W39R, G40L, W68L
B22: ISOP193FR9P1G10 (designed binder, not shown: small tags and cut ends)
chain: B12 chain with A32T, Q34Y, W36F, G38N, W39E, E40N, W41G
B23: ISOP193ER9P1G4 (designed binder, not shown: small tags and cut ends)
chain: B7 chain with H11R, Y78N, L79F, M81F
B24: ISOP193HR9P1E3 (designed binder, not shown: small tags and cut ends)
chain: B7 chain with H11R, D32E, H38L, P39R, V40L, Y78A, L79Y, M81N
B25: ISOP193GR9P1F7 (designed binder, not shown: small tags and cut ends)
chain: LPAPKNLVVSRVTEDSARLSWTAPDAAFDSFDIPYVEYYPSGEAIVLNVPGSERSYDLTGLKPGTEYGVTIWGIKGGNESVPLTARFTT
B26: ISOP193ER9P1F11 (designed binder, not shown: small tags and cut ends)
chain: LPAPKNLVVSRVTEDSARLSWTAPDAAFDSFAIQYQEYVAHGEAIVLTVPGSERSYDLTGLKPGTEYHVRISGVKGGGVSWPLSAISTT
B27: ISOP193GR9P1B3 (designed binder, not shown: small tags and cut ends)
chain: LPAPKNLVVSRVTEDSARLSWTAPDAAFDSFAIGYVEWTANGEAIVLIVPGSERSYDLTGLKPGTEYVVRIRGGVKGGDSSFPLRADFTT
B28: ISOP193GR9P1E10 (designed binder, not shown: small tags and cut ends)
chain: LPAPKNLVVSRVTEDSARLSWTAPDAAFDSFAISYTESIRQGEAIWLWVPGSERSYDLTGLKPGTEYEVTIGGVKGGIRSYPLWAWFTT
B29: ISOP193GR9P1G9 (designed binder, not shown: small tags and cut ends)
chain: LPAPKNLVVSRVTEDSARLSWTAPDAAFDSFAIFYHEFANSGEAIDLPVPGSERSYDLTGLKPGTEYDVRIYGVKGGTASIPLDAEFTT
B30: ISOP193FR9P1D1 (designed binder, not shown: small tags and cut ends)
chain: LPAPKNLVVSRVTEDSARLSWTAPDAAFDSFFIQYLEDVTNGEAIVLTVPGSERSYDLTGLKPGTEYRVPIAGVKGGRDSQPLSAIFTT

Tests used:
human serum albumin [1] = biological target: T1, human serum albumin (human, UniProt P02768 25-609); test: ELISA, bacterial lysate on plate-bound antigen, luminescence
T1 construct: Negative control antigen of the screening ELISA; also called HSA
Experimental: (§1) Streptavidin-coated Maxisorp plates (Nunc catalog 436110) were blocked for 1 h in Starting Block T20 (Pierce) and then coated with biotinylated CD137 (using same antigen as in panning) or negative controls (an unrelated Fc-fused recombinant protein and human serum albumin) for 1 h. Plates were rinsed with TBST and diluted lysate was applied to plates for 1 h. Following additional rinses, wells were treated with HRP-conjugated anti-Centyrin antibody (PAB25) for 1 h and then assayed with POD (Roche catalog 11582950001).
T1 sequence (P02768 25-609 limits assumed): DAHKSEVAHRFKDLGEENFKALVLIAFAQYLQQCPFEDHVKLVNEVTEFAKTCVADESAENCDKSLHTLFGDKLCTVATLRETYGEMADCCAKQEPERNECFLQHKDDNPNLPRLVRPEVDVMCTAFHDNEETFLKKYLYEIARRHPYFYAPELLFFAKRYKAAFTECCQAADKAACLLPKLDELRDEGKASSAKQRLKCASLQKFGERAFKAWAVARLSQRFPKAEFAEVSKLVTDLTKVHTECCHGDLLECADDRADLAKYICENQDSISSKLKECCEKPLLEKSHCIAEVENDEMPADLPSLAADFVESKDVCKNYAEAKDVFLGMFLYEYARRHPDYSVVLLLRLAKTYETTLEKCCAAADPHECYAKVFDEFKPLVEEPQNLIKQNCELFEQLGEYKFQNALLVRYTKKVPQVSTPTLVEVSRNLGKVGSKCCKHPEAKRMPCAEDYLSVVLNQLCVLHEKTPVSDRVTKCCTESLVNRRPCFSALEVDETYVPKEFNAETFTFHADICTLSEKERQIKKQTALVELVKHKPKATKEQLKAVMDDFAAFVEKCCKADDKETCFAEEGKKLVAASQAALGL

[2] = biological target: T2, recombinant biotinylated human CD137 protein (Fc-fusion protein, R&D Systems 838-4B) (human, UniProt Q07011 24-186, biotinylated (site not stated)); test: as above
T2 construct: Bought Fc fusion; The ELISA used the same antigen as the panning; also called CD137-Fc; biotinylated CD137; not shown: Fc part of the bought fusion protein
Experimental: as §1

[3] = biological target: unrelated Fc-fused recombinant protein (negative control); test: as above
[4] = biological target: T3, recombinant biotinylated CD137 protein (Fc-fusion protein, R&D Systems 838-4B) (human, UniProt Q07011 24-186, biotinylated, sites not stated); test: ELISA, lysate on biotinylated CD137-Fc
T3 construct: Bought Fc fusion; also called CD137-Fc
Experimental: as §1

human serum albumin [5] = biological target: T4, human serum albumin (human, UniProt P02768 25-609); test: ELISA, negative control HSA
T4 construct: Negative control of the ELISA; also called HSA
Experimental: as §1
T4 sequence (P02768 25-609 limits assumed): as above

[6] = biological target: unrelated Fc-fused recombinant protein; test: ELISA, negative control Fc protein

Row | Binder | ELISA HSA (RLU) (human serum albumin [1]) | ELISA CD137-Fc (RLU) [2] | ELISA Fc Control (RLU) [3] | ELISA CD137 (RLU) [4] | ELISA HSA (RLU) (human serum albumin [5]) | ELISA Fc Control (RLU) [6]
1 | B1 | 400 RLU | 1.28e+06 RLU | 400 RLU |  |  | 
2 | B2 |  |  |  | 9.85e+06 RLU | 400 RLU | 1360 RLU
3 | B3 | 480 RLU | 1.13e+06 RLU | 400 RLU |  |  | 
4 | B4 |  |  |  | 5.31e+06 RLU | 640 RLU | 1360 RLU
5 | B5 |  |  |  | 1.16e+07 RLU | 880 RLU | 2000 RLU
6 | B6 |  |  |  | 1.05e+07 RLU | 400 RLU | 1520 RLU
7 | B7 |  |  |  | 1.61e+07 RLU | 320 RLU | 1600 RLU
8 | B8 |  |  |  | 1.27e+07 RLU | 1520 RLU | 5680 RLU
9 | B9 |  |  |  | 1.58e+07 RLU | 960 RLU | 1280 RLU
10 | B10 |  |  |  | 1.1e+07 RLU | 400 RLU | 1680 RLU
11 | B11 |  |  |  | 4.6e+06 RLU | 13700 RLU | 49800 RLU
12 | B12 |  |  |  | 5.78e+06 RLU | 880 RLU | 3520 RLU
13 | B13 |  |  |  | 1.15e+07 RLU | 1200 RLU | 8160 RLU
14 | B14 |  |  |  | 1.56e+07 RLU | 800 RLU | 1360 RLU
15 | B15 |  |  |  | 7.86e+06 RLU | 880 RLU | 2560 RLU
16 | B16 |  |  |  | 1.5e+07 RLU | 400 RLU | 1840 RLU
17 | B17 |  |  |  | 1.72e+07 RLU | 560 RLU | 960 RLU
18 | B18 |  |  |  | 1.61e+07 RLU | 6080 RLU | 31300 RLU
19 | B19 |  |  |  | 1.51e+07 RLU | 3360 RLU | 24200 RLU
20 | B20 |  |  |  | 1.63e+07 RLU | 1520 RLU | 3120 RLU
21 | B21 |  |  |  | 1.48e+07 RLU | 10100 RLU | 43900 RLU
22 | B22 |  |  |  | 8.91e+06 RLU | 880 RLU | 2480 RLU
23 | B23 |  |  |  | 1.38e+07 RLU | 320 RLU | 1440 RLU
24 | B24 |  |  |  | 1.78e+07 RLU | 640 RLU | 1120 RLU
25 | B25 |  |  |  | 3.48e+06 RLU | 400 RLU | 880 RLU
26 | B26 |  |  |  | 1.12e+07 RLU | 400 RLU | 2240 RLU
27 | B27 |  |  |  | 3.46e+06 RLU | 320 RLU | 880 RLU
28 | B28 |  |  |  | 1.05e+07 RLU | 480 RLU | 1360 RLU
29 | B29 |  |  |  | 3.05e+06 RLU | 480 RLU | 960 RLU
30 | B30 |  |  |  | 8.13e+06 RLU | 640 RLU | 1680 RLU
